Where “and” joins values, the source holds several entries; their conditions need not be identical. Equal values may be shown once.
Biological target: the molecule itself
Test: SDS-PAGE with immunoblot (denaturing); denatured samples (SDS loading buffer, 5 min 95 °C) of the extracts made for BN-PAGE

B1: HIR2-HA (natural protein, Arabidopsis thaliana, UniProt Q9SRH6 1-285, looked up)
chain: MGNLFCCVLVKQSDVAVKERFGKFQKVLNPGLQFVPWVIGDYVAGTLTLRLQQLDVQCETKTKDNVFVTVVASIQYRVLADKASDAFYRLSNPTTQIKAYVFDVIRACVPKLNLDDVFEQKNEIAKSVEEELDKAMTAYGYEILQTLIIDIEPDQQVKRAMNEINAAARMRVAASEKAEAEKIIQIKRAEGEAESKYLSGLGIARQRQAIVDGLRDSVLGFAGNVPGTSAKDVLDMVMMTQYFDTMRDIGATSKSSAVFIPHGPGAVSDVAAQIRNGLLQANNAS
notes: HIR2, Arabidopsis thaliana; also called HA-tagged HIR2; source: Nicotiana benthamiana leaves, transient expression, total protein extract
- stoichiometry N: 2 and 4 and 6
